Measurements reported in patent US20040170622A1, “Methods and compositions for modulating XBP-1 activity” (President and Fellows of Harvard College, priority 2002, published 2004).

B1: XBP-1s: vector encoding only the spliced form of murine XBP-1, a protein of 371 aa (protein)
chain: MVVVAAAPSAATAAPKVLLLSGQPASGGRALPLMVPGPRAAGSEASGTPQARKRQRLTHLSPEEKALRRKLKNRVAAQTARDRKKARMSELEQQVVDLEEENHKLQLENQLLREKTHGLVVENQELRTRLGMDTLDPDEVPEVEAKGSGVRLVAGSAESAAGAGPVVTSPEHLPMDSDTVASSDSESDILLGILDKLDPVMFFKCPSPESASLEELPEVYPEGPSSLPASLSLSVGTSSAKLEAINELIRFDHVYTKPLVLEIPSETESQTNVVVKIEEAPLSSSEEDHPEFIVSVKKEPLEDDFIPELGISNLLSSSHCLRPPSCLLDAHSDCGYEGSPSPFSDMSSPLGTDHSWEDTFANELFPQLISV
B2: dn-XBP: dominant negative XBP-1 containing the N-terminal 188 aa, lacking transactivation domain, retaining leucine zipper (protein)
chain: MVVVAAAPSAATAAPKVLLLSGQPASGGRALPLMVPGPRAAGSEASGTPQARKRQRLTHLSPEEKALRRKLKNRVAAQTARDRKKARMSELEQQVVDLEEENHKLQLENQLLREKTHGLVVENQELRTRLGMDTLDPDEVPEVEAKGSGVRLVAGSAESAAGAGPVVTSPEHLPMDSDTVASSDSESD

Legend:
XBP-1^−/− B cells = assay: Ig production by retrovirally transduced XBP-1-/- primary B cells (ELISA); assay type: cell-based, mouse; details: LPS 10 μg/ml 72 h
Description: Assays to measure immunoglobulin or cytokine levels in culture supernatants were performed as described (e.g., Hodge et al., 1996 Immunity. 4:397-405 or Science. 1996 274:1903-5).
The XBP-1 cDNAs for the unspliced (XBP-1u/s) and the spliced (XBP-1s) forms were PCR-amplified from the total RNA of untreated and tunicamycin treated NIH3T3 cells, respectively, with a primer set (5′-[…]-3′ (SEQ ID NO: 7) and 5′-[…]-3′) (SEQ ID NO: 8). XBP-1u form was generated by a PCR-based mutagenesis from XBP-unspliced/s cDNA so that the two G residues at position 532 and 535 were changed to A without changing amino acid sequences in the XBP-1u open reading frame. Numbers are based on the sequences from gene bank database (NM_013842 [gi:13775155]). These XBP-1 cDNAs were inserted into the GFP-RV retroviral vector by using blunt end ligation (Sambrook et al., 1989). EFFECTENE transfection (Quiagen) was used to introduce the DNA into the Phoenix cell line as described by manufacturer (e.g., Reimold et al., 2001 Nature. 412:300-7 or Int Immunol. 2001 13:241-8). Viral supernatants were harvested after 48 hours and frozen at −80° C. for later use. B cells were purified from mouse spleens using CD43 depletion or positive selection with B220+ magnetic beads as described by the manufacturer (MidiMacs, Miltenyi Biotech). B cell purity was generally near 95% as confirmed by flow cytometry. The B cells (10^6 cells /ml) were then activated in culture with LPS 10 μg/ml and F (ab′)2 anti-IgM (5 μg/ml Southern Biotechnology Associates Inc.) for 24 hours. The 1 ml of activated B cells (10^6 cells/ml) were mixed with 4 μg of polybrene and 1 ml of virus-containing supernatant and spun at 1000 g for 45 minutes at 24° C. Cells were incubated for 24-36 h at 37° C. and then GFP+ cells were flow sorted and returned to culture with and without stimulation.
The effects of these three different forms of XBP-1 on Ig secretion were compared in wild type and XBP-1^−/− B cells. In vitro activated splenic B cells were transduced using retroviruses expressing bicistronic mRNA encoding XBP-1u/s, XBP-1s, XBP-1u or control GFP. In FIGS. 5(A) and (B) purified B cells from wt and XBP-1^−/− mice were activated in culture with LPS 10 μg/ml and F (ab′)2 anti-IgM (5 μg/ml) for 24 hours. Retroviral transduction with GFP alone (GFP-Rv), XBP-1u/s (XBP-1u/s GFP Rv), XBP-1s (XBP-1s GFP Rv) or XBP-1u (XBP-1u GFP Rv) of activated B cells was performed. Cells were incubated for 24-36 h at 37° C. and then GFP+ cells were flow sorted and then returned to culture with LPS stimulation (10 μg/ml) for 72 h. IgM panel(A) and IgG2b panel (B) production analyzed by ELISA from culture supernatants of stimulated B cells. Experiments were done at least three times and standard deviation is shown.

XBP-1 = XBP-1 dependent gene expression in dn-XBP / iXBP transduced J558 cells (Northern, Western blot); assay type: cell-based
Text: (A) Synergistic effect of Tm and MG-132 on apoptosis. Annexin V positive cells were counted after treating J558 cells for 18 hrs with suboptimal concentrations of Tm and MG-132 as indicated. (B) J558-iXBP cells were generated by retroviral transduction of J558 cells with the U6 promoter based XBP-1 RNAi vector. (C) XBP-1 dependent gene expression in J558 cells that express control GFP, dn-XBP or iXBP-1 treated with Tm. Generation of dn-XBP-1 J558 cells by infection with a retrovirus containing dn-XBP cDNA inserted into the GFP-RV vector (N. N. lwakoshi et al., Nature Immunology 4, 321-329 (2003)). ERdj4, p58^IPK, BiP and CHOP gene expression were examined by Northern blot analysis. (D) Increased apoptosis in iXBP-1 and dn-XBP-1 expressing J558 cells. Cells were treated with the indicated amounts of Tm for 48 hrs and dead cells counted after Annexin V staining.
Total RNA was prepared by using Trizol reagent, electrophoresed on 1.2% agarose, 6% formaldehyde gels and then transferred onto Genescreen Plus membrane, (NEN, Boston, Mass.). […] Probes for ERdj4 and p58^IPK were generated from cDNA excised from EST clones (ATCC, Manassas, Va.) using appropriate restriction enzymes (ERdj4, IMAGE: 1920927; p58^IPK, IMAGE:2646147). […]

Molecule	secretion of IgM compared to control cells (XBP-1^−/− B cells)	induction of BiP and CHOP by Tm (XBP-1)	induction of ERdj4 and p58IPK by Tm (XBP-1)
B1	approximately ten-fold		
B2		minimally affected	greatly reduced induction of XBP-1-dependent UPR target genes, ERdj4 and p58^IPK
